Assay results reported in patent publication US20160168253.

Target: T1, peptide substrate MCA-RPPGFSAFK(Dnp)-OH (R&D Systems Cat. No. ES005)
T1 chain: RPPGFSAFK

B1: Neprilysin (R&D Systems, Cat. No 1182-ZNC) (protein)
chain: YDDGICKSSDCIKSAARLIQNMDATTEPCTDFFKYACGGWLKRNVIPETSSRYGNFDILRDELEVVLKDVLQEPKTEDIVAVQKAKALYRSCINESAIDSRGGEPLLKLLPDIYGWPVATENWEQKYGASWTAEKAIAQLNSKYGKKVLINLFVGTDDKNSVNHVIHIDQPRLGLPSRDYYECTGIYKEACTAYVDFMISVARLIRQEERLPIDENQLALEMNKVMELEKEIANATAKPEDRNDPMLLYNKMTLAQIQNNFSLEINGKPFSWLNFTNEIMSTVNISITNEEDVVVYAPEYLTKLKPILTKYSARDLQNLMSWRFIMDLVSSLSRTYKESRNAFRKALYGTTSETATWRRCANYVNGNMENAVGRLYVEAAFAGESKHVVEDLIAQIREVFIQTLDDLTWMDAETKKRAEEKALAIKERIGYPDDIVSNDNKLNNEYLELNYKEDEYFENIIQNLKFSQSKQLKKLREKVDKDEWISGAAVVNAFYSSGRNQIVFPAGILQPPFFSAQQSNSLNYGGIGMVIGHEITHGFDDNGRNFNKDGDLVDWWTQQSASNFKEQSQCMVYQYGNFSWDLAGGQHLNGINTLGENIADNGGLGQAYRAYQNYIKKNGEEKLLPGLDLNHKQLFFLNFAQVWCGTYRPEYAVNSIKTDVHSPGNFRIIGTLQNSAEFSEAFHCRKNSYMNPEKKCRVW
  Km [µM] (apparent Km, hydrolysis of fluorogenic peptide substrate): 3.2 µM
  Vmax: 2930 s⁻¹
